Molecular target: T1, human clone 24 (Homo sapiens, UniProt Q96LB2, E310Q/I312T/I5V)
T1 construct: expressed in transfected cells
Assay: Calcium signaling (FURA-2) in stably transfected HEK293 cells 293/pcDNA3-HML-HA24
Format: cell-based
Conditions: stably transfected HEK293 cell line 293/pcDNA3-HML-HA24, FURA-2 AM, peptides added successively
Description: The coding sequence of human clone 24 was transferred into a pcDNA3 vector and modified to add a haemaglutinin tag at the C-terminus of the receptor sequence. This clone, designated as pcDNA3-HML-HA24 was transfected into HEK293 cells using a modified CaCl2 method (Maniatis, Molecular Cloning: A Laboratory Manual, Cold Spring Harbor Laboratory Press (1989)). The cells were maintained in culture medium at 37° C., 5% CO2 and diluted 10 fold every 3 days.
The cells were inoculated in 90 mm tissue culture dishes (5×10^5 cells per flask) in Dulbecco's Modified Essential Medium (DMEM, Gibco BRL), supplemented with 10% fetal bovine serum (FBS), 100 U/ml penicillin, 100 μg/ml streptomycin and 0.25 μg/ml fungizone. One day after inoculation, cells were transiently transfected with 30 μg of plasmid DNA per dish. The cells were harvested 48 hours post transfection for analysis. The expression of the gene was first checked by immunoprecipitation and western blotting with an anti-haemaglutinin antibody. A protein of approximately 43 KD was detected in stably as well as transiently transfected HEK293 cells, but not in control cells.
Stably transfected HEK293 cells were obtained after approximately 21 days of selection in culture medium containing 800 μg/ml G418. Calcium signaling measurement was performed with one of these stably transfected cell line, 293/pcDNA3-HML-HA24. The cells were grown on a 24 mm round glass cover slides to 50–70% confluence. […] The calcium displacement was measured using a PTI (Photon Technology International) D104 photometer equipped with a PTI Delta RAM High speed multiwavelength illuminator, a PTI SC500 Shutter controller, a PTI LPS220 ARC lamp supply and the PTI FELIX software, v.1.2. […] The cells were exposed to 340 and 380 nm light and the 510 nm light emitted by the cells was recorded. […]

T1 sequence (Q96LB2 whole entry I5V/E310Q/I312T): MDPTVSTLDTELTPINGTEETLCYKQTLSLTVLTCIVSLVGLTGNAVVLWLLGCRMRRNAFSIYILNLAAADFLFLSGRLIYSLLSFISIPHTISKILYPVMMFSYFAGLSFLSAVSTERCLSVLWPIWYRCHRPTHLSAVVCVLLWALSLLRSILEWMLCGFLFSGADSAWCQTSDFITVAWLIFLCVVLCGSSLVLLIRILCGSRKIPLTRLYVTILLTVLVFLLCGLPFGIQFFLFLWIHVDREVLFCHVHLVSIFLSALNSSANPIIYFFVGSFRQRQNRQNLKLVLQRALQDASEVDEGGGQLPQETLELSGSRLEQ

| Substance | calcium displacement response upon stimulation |
| --- | --- |
| Angiotensin I (DRVYIHPFHL) [peptide added to DRR-transfected cells in calcium signaling assay] | no response |
| angiotensin II (DRVYIHPF) [peptide added to DRR-transfected cells in calcium signaling assay] | a significant response |
| angiotensin III | a significant response |
